Series [1] addresses T1, HU (Neisseria gonorrhoeae) (UniProt Q5F8J6).
T1 sequence: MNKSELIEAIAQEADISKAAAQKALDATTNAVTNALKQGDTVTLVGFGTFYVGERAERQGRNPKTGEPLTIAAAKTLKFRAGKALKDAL
The experiment in a line: EMSA. Conditions: 20 mM Tris-HCl pH 8.0, 150 mM NaCl, 7% glycerol; 15 min; labelled DNA 10.5 nM; gel in 100 mM Tris-borate; temperature not stated; low values mean tight binding.

Series [2] deals with T2, HU (Mycoplasma gallisepticum) (UniProt A0A0F6CKR5).
T2 sequence: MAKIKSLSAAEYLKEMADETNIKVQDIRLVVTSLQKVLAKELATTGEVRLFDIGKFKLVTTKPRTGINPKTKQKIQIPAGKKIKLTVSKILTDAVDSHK
The experiment in a line: EMSA. The settings on record: 20 mM Tris-HCl pH 8.0, 150 mM NaCl, 7% glycerol; 15 min; labelled DNA 10.5 nM; gel in 100 mM Tris-borate; temperature not stated; low values mean tight binding. (A gel shift assay detects complexes by their altered migration in electrophoresis.)

Series [3] has as its target T3, HU alpha (Escherichia coli) (UniProt P0ACF0).
T3 sequence: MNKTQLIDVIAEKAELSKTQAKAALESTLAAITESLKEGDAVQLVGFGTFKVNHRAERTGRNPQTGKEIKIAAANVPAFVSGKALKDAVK
The experiment in a line: EMSA. Conditions: 20 mM Tris-HCl pH 8.0, 150 mM NaCl, 7% glycerol; 15 min; labelled DNA 10.5 nM; gel in 100 mM Tris-borate; temperature not stated; low values mean tight binding.

Series [4] deals with T4, HU (Spiroplasma melliferum) (UniProt A0ABX5UAT3).
T4 sequence: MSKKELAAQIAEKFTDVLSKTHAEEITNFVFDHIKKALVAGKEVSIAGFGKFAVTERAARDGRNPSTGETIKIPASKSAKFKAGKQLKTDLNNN
Put plainly: EMSA. Conditions: 20 mM Tris-HCl pH 8.0, 150 mM NaCl, 7% glycerol; 15 min; labelled DNA 10.5 nM; gel in 100 mM Tris-borate; temperature not stated; low values mean tight binding.

The target of series [5] is T5, HU (Neisseria gonorrhoeae, UniProt Q5F8J6 1-89).
T5 sequence: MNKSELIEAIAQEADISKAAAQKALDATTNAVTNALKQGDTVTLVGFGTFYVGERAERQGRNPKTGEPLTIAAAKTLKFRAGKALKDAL
Put plainly: EMSA. Conditions: 20 mM Tris-HCl pH 8.0, 7% glycerol, 40 mM NaCl (dsDNA length series, 200 nM DNA, gel 50 mM Tris-borate) or 150 mM NaCl (distorted structures, 10.5 nM DNA, gel …).

For series [6], the system named is HU (Mycoplasma gallisepticum). The experiment in a line: EMSA. Conditions: 20 mM Tris-HCl pH 8.0, 7% glycerol, 40 mM NaCl (dsDNA length series, 200 nM DNA, gel 50 mM Tris-borate) or 150 mM NaCl (distorted structures, 10.5 nM DNA, gel …).
The test system of series [7] is HU (Spiroplasma melliferum). The experiment in a line: EMSA. Conditions: 20 mM Tris-HCl pH 8.0, 7% glycerol, 40 mM NaCl (dsDNA length series, 200 nM DNA, gel 50 mM Tris-borate) or 150 mM NaCl (distorted structures, 10.5 nM DNA, gel …).
The target of series [8] is T5, HU. Put plainly: EMSA; 40 mM NaCl; 4 complexes; 20 mM Tris-HCl pH 8.0, 7% glycerol, 40 mM NaCl (dsDNA length series, 200 nM DNA, gel 50 mM Tris-borate) or 150 mM NaCl (distorted structures, 10.5 nM DNA, gel 100 mM Tris-borate); 15 min, temperature not stated. The settings on record: protein: recombinant; tags: N-terminal 6xHisTEV removed by TEV protease; chain copies: 2; label: 5'-HEX; blunt.

In series [9] the target is T6, HU alpha (Escherichia coli, UniProt P0ACF0 1-90). The experiment in a line: EMSA; 40 mM NaCl; 20 mM Tris-HCl pH 8.0, 7% glycerol, 40 mM NaCl (dsDNA length series, 200 nM DNA, gel 50 mM Tris-borate) or 150 mM NaCl (distorted structures, 10.5 nM DNA, gel 100 mM Tris-borate); 15 min, temperature not stated. The settings on record: protein: recombinant; tags: N-terminal 6xHisTEV removed by TEV protease; chain copies: 2; label: 5'-HEX; blunt.

Series [10] concerns the target T5, HU. Put plainly: EMSA; 40 mM NaCl; 2 complexes; 20 mM Tris-HCl pH 8.0, 7% glycerol, 40 mM NaCl (dsDNA length series, 200 nM DNA, gel 50 mM Tris-borate) or 150 mM NaCl (distorted structures, 10.5 nM DNA, gel 100 mM Tris-borate); 15 min, temperature not stated. Conditions: protein: recombinant; tags: N-terminal 6xHisTEV removed by TEV protease; chain copies: 2; label: 5'-HEX; blunt.

For series [11], the target named is T5, HU. Put plainly: EMSA; 40 mM NaCl; 3 complexes; 20 mM Tris-HCl pH 8.0, 7% glycerol, 40 mM NaCl (dsDNA length series, 200 nM DNA, gel 50 mM Tris-borate) or 150 mM NaCl (distorted structures, 10.5 nM DNA, gel 100 mM Tris-borate); 15 min, temperature not stated. Conditions: protein: recombinant; tags: N-terminal 6xHisTEV removed by TEV protease; chain copies: 2; label: 5'-HEX; blunt.

The target of series [12] is T5, HU. Put plainly: EMSA; 20 mM Tris-HCl pH 8.0, 150 mM NaCl, 7% glycerol; 15 min; labelled DNA 10.5 nM; gel in 100 mM Tris-borate; temperature not stated. The settings on record: protein: recombinant, tags: N-terminal 6xHisTEV removed by TEV protease, chain copies: 2, label: 5'-HEX on strand 1.
The target in series [13] is T6, HU alpha. The series is described as above. The settings on record: protein: recombinant, tags: N-terminal 6xHisTEV removed by TEV protease, chain copies: 2, label: 5'-HEX on strand 1.
Series [14] has as its target HU (Mycoplasma gallisepticum, UniProt A0A0F6CKR5 1-99). The description is as above. The settings on record: protein: recombinant, tags: N-terminal 6xHisTEV removed by TEV protease, chain copies: 2, label: 5'-HEX on strand 1.
In series [15] the target is T7, HU (Spiroplasma melliferum, UniProt A0ABX5UAT3 1-94).
T7 sequence: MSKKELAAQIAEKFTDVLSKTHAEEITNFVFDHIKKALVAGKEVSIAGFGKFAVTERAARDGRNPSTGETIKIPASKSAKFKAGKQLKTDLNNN
The description is as above. Conditions: protein: recombinant, tags: N-terminal 6xHisTEV removed by TEV protease, chain copies: 2, label: 5'-HEX on strand 1.

Series [16] deals with T5, HU. The experiment in a line: EMSA; 150 mM NaCl; 20 mM Tris-HCl pH 8.0, 7% glycerol, 40 mM NaCl (dsDNA length series, 200 nM DNA, gel 50 mM Tris-borate) or 150 mM NaCl (distorted structures, 10.5 nM DNA, gel 100 mM Tris-borate); 15 min, temperature not stated. Conditions: protein: recombinant; tags: N-terminal 6xHisTEV removed by TEV protease; chain copies: 2; label: 5'-HEX on strand 1; four-way junction 1:2 2:3 3:4 4:1.

Series [17] concerns the target T6, HU alpha. Put plainly: EMSA; 40 mM NaCl; 3 complexes; 20 mM Tris-HCl pH 8.0, 7% glycerol, 40 mM NaCl (dsDNA length series, 200 nM DNA, gel 50 mM Tris-borate) or 150 mM NaCl (distorted structures, 10.5 nM DNA, gel 100 mM Tris-borate); 15 min, temperature not stated. Conditions: protein: recombinant; tags: N-terminal 6xHisTEV removed by TEV protease; chain copies: 2; label: 5'-HEX; blunt.

Setting [18] is: four-way junction 1:2 2:3 3:4 4:1.
The mark [19] stands for this setting: duplex with 7 unpaired A in strand 2.
[20] abbreviates: duplex with 1 unpaired A in strand 2.
Where [21] appears, read: duplex with 3 unpaired A in strand 2.

As for “AGTCTAGAGTGCAGTTGAGTCCTTGCTACGACGGATCCCTTAGGTCAG (double strand) [D48 dsDNA (ds)]”, the Kd (as a rule, the constant that tells how readily two partners part at equilibrium) is 1100 nM in series [1], 440 nM in [2], 293 nM in series [3] and 117 nM in [4].
As for DNA invasion (inv), the results for the binding signal (fold affinity vs nicked DNA) in series [5] and in [6] were 5 and 20, respectively.
For “AGTCTAGAGTGCAGTTGAGTCCTTGCTACGACGGATCCCTTAGGTCAG / CTGACCTAAGGGATCCGTCGTAGCAAGGGGCTGATACCGGAAGCTTCT / AGAAGCTTCCGGTATCAGCCTGAGCGGTGGTTGAATTCCT / AGGAATTCAACCACCGCTCAACTCAACTGCACTCTAGACT [four-way junction (J)]”, the binding signal (fold affinity vs nicked DNA) in series [6] stood at 10.
On to “AGTCTAGAGTGCAGTTGAGTCCTTGCTACGACGGATCCCTTAGGTCAG / CTGACCTAAGGGATCCGTCGTAGCAAGAGACTCAACTGCACTCTAGACT [bulge A1]”, for which the Kd in series [7] amounted to 35 nM; in series [6] it was 132 nM.

B1: D36 dsDNA (dsDNA)
DNA 1: AGTCTAGAGTGCAGTTGAGTCCTTGCTACGACGGAT
DNA 2: ATCCGTCGTAGCAAGGACTCAACTGCACTCTAGACT
As to B1, the binding result in series [8] and in series [9] was “binds” throughout.

B2: D21 dsDNA (dsDNA)
DNA 1: AGTCTAGAGTGCAGTTGAGTC
DNA 2: GACTCAACTGCACTCTAGACT
As to B2, the binding result in series [10] and in [9] was “binds” each time.

B3: D27 dsDNA (dsDNA)
DNA 1: AGTCTAGAGTGCAGTTGAGTCCTTGCT
DNA 2: AGCAAGGACTCAACTGCACTCTAGACT
Take B3: in series [11], the binding result was “binds”.

B4: four-way junction (J) (structured_DNA)
DNA 1: AGTCTAGAGTGCAGTTGAGTCCTTGCTACGACGGATCCCTTAGGTCAG
DNA 2: CTGACCTAAGGGATCCGTCGTAGCAAGGGGCTGATACCGGAAGCTTCT
DNA 3: AGAAGCTTCCGGTATCAGCCTGAGCGGTGGTTGAATTCCT
DNA 4: AGGAATTCAACCACCGCTCAACTCAACTGCACTCTAGACT
B4: the Kd was 110 ± 25 nM in [12] (setting [18]), 44 ± 10 nM in series [13] (setting [18]), 26 ± 6 nM in series [14] (setting [18]) and 35 ± 8 nM in series [15] (setting [18]). Further, the binding signal in series [16] was 4 fold affinity vs nicked DNA.

B5: bulge A7 (structured_DNA)
DNA 1: AGTCTAGAGTGCAGTTGAGTCCTTGCTACGACGGATCCCTTAGGTCAG
DNA 2: CTGACCTAAGGGATCCGTCGTAGCAAGAAAAAAAGACTCAACTGCACTCTAGACT
Take B5: the Kd was 220 ± 60 nM in series [12] (setting [19]), 44 ± 10 nM in series [13] (setting [19]), 44 ± 12 nM in series [14] (setting [19]) and 12 ± 4 nM in series [15] (setting [19]).

B6: bulge A1 (structured_DNA)
DNA 1: AGTCTAGAGTGCAGTTGAGTCCTTGCTACGACGGATCCCTTAGGTCAG
DNA 2: CTGACCTAAGGGATCCGTCGTAGCAAGAGACTCAACTGCACTCTAGACT
As for B6, the Kd is 440 ± 120 nM in series [12] (setting [20]), 88 ± 20 nM in series [13] (setting [20]), 132 ± 30 nM in series [14] (setting [20]) and 35 ± 8 nM in series [15] (setting [20]).

B7: bulge A3 (structured_DNA)
DNA 1: AGTCTAGAGTGCAGTTGAGTCCTTGCTACGACGGATCCCTTAGGTCAG
DNA 2: CTGACCTAAGGGATCCGTCGTAGCAAGAAAGACTCAACTGCACTCTAGACT
On to B7, for which the Kd is 440 ± 120 nM in series [12] (setting [21]), 88 ± 20 nM in [13] (setting [21]), 132 ± 30 nM in series [14] (setting [21]) and 35 ± 8 nM in series [15] (setting [21]).

B8: nicked DNA (n) (structured_DNA)
DNA 1: AGTCTAGAGTGCAGTTGAGTCCTTGCTACGACGGATCCCTTAGGTCAG
DNA 2: CTGACCTAAGGGATCCGTCGTAGCAAGG
DNA 3: ACTCAACTGCACTCTAGACT
For the molecule B8, the Kd in series [12] (nick 1:2 1:3) stood at 440 ± 100 nM; in series [13] (nick 1:2 1:3), 88 ± 20 nM; in series [14] (nick 1:2 1:3), 264 ± 70 nM; in series [15] (nick 1:2 1:3) it was 35 ± 8 nM.

B9: overhang (ov) (structured_DNA)
DNA 1: AGTCTAGAGTGCAGTTGAGTCCTTGCTACGACGGATCCCTTAGGTCAG
DNA 2: ACTCAACTGCACTCTAGACT
Turning to B9, the Kd in series [12] (3' overhang 28 nt) is 120 ± 25 nM; in series [13] (3' overhang 28 nt) it was 50 ± 15 nM; in series [14] (3' overhang 28 nt) it was 30 ± 8 nM; in series [15] (3' overhang 28 nt), 45 ± 10 nM.

B10: D29 dsDNA (dsDNA)
DNA 1: AGTCTAGAGTGCAGTTGAGTCCTTGCTAC
DNA 2: GTAGCAAGGACTCAACTGCACTCTAGACT
In the case of B10, the binding result in series [17] is given as “binds”.
